Source: PMC3492551 (Nature structural & molecular biology, 2012)

Experiments:
UHRF1 126-280 [1] = target: UHRF1 126-280 (UniProt Q96T88); assay: biotin-peptide streptavidin pulldown, western blot; settings: sites S10
UHRF1 126-280 [2] = target: UHRF1 126-280 (UniProt Q96T88); assay: histone peptide microarray; settings: sites S10
MPP8 50-118 = MPP8 50-118 (UniProt Q99549); assay: fluorescence polarization titration; settings: reference: H3K9me3 peptide; sites S10
[3] = target: T1, UHRF1 tandem Tudor domain (TTD), residues 126-280 (human, UniProt Q96T88 126-280); assay: NMR titration
T1 sequence (looked up): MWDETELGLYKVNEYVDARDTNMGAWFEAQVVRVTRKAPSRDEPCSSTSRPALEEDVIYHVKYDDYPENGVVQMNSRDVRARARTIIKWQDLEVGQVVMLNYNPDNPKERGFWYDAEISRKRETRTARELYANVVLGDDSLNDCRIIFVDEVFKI

## histone H3 (from UniProt P68431) H3K9me2S10p peptide
UHRF1 126-280 [1]; reference: H3K9me2 peptide
  binding against the reference: same
UHRF1 126-280 [2]; reference: H3K9me2 peptide
  binding against the reference: same

## histone H3 1-20 (from UniProt P68431) H3K9me3S10p peptide
MPP8 50-118
  KD: lost; reference 0.23

## histone H3 (from UniProt P68431) H3K9me3S10p peptide
UHRF1 126-280 [1]; reference: H3K9me3 peptide
  binding against the reference: same
UHRF1 126-280 [2]; reference: H3K9me3 peptide
  binding against the reference: same

## ARTKQTARKST (not fully specified; trimethyl-lysine at 9; phosphoserine at 10) [doubly modified H3 peptide (residues 1-11, ARTKQTARKme3SpT)]
[3]
  binding result: binds
